Changes are numbered by the printed parent chain. Names and notes keep the numbering of the source.

In experiment [1] the target is T1, truncated cTfR1 of SEQ ID NO:123 (cynomolgus monkey, UniProt Q5RDH6 122-760 (Pongo abelii entry)).
T1 construct: also called cynomolgus TfR1
T1 chain: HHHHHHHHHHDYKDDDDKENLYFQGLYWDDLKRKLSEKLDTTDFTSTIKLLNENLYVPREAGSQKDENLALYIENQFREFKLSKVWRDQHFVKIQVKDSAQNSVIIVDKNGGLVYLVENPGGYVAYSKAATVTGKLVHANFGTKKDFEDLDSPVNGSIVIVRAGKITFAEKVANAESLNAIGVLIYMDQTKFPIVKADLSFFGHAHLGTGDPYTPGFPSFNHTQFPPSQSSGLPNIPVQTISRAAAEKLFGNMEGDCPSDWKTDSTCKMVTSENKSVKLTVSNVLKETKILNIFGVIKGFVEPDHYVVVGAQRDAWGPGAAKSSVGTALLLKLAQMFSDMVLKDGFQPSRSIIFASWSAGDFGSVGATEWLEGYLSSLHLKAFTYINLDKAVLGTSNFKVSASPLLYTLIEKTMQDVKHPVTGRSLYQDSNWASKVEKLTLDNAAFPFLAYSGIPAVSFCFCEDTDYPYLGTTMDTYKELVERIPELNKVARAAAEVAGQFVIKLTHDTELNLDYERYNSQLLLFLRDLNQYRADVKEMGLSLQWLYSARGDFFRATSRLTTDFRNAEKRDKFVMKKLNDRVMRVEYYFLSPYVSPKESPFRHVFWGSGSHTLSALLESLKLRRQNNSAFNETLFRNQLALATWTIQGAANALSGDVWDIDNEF
The experiment is described as follows: SPR, FLAG-captured TfR1, scFv injected, 1:1 fit. The protocol: (§1) The interaction was measured using the single cycle kinetics method with a contact time of 120 s at a flow rate of 30 μl/min followed by a dissociation time of 600 s. Regeneration of the surface between cycles was done by injecting 10 mM glycine-HCl, pH 1.7. The binding data was fitted to a 1:1 interaction model. The scFv variants were diluted in HBS-EP+ (Cytiva. #BR100669). Experiments were performed at 25° C.

Experiment [2] concerns the target T2, truncated hTfR1 of SEQ ID NO:122 (human, UniProt P02786 122-760).
T2 construct: also called human TfR1; Human TfR1
The experiment is described as follows: SPR, FLAG-captured TfR1, scFv injected, 1:1 fit. The protocol:
as §1

Experiment [3] concerns the target T2, truncated hTfR1 of SEQ ID NO:122. As to the kind of experiment: SPR follow-up, 4 replicates, FLAG-captured hTfR1, scFv injected. The protocol: as §1
The selected molecules were produced as described above.

T2 sequence (P02786 other isoform, or with tags, fused parts or gaps limits assumed): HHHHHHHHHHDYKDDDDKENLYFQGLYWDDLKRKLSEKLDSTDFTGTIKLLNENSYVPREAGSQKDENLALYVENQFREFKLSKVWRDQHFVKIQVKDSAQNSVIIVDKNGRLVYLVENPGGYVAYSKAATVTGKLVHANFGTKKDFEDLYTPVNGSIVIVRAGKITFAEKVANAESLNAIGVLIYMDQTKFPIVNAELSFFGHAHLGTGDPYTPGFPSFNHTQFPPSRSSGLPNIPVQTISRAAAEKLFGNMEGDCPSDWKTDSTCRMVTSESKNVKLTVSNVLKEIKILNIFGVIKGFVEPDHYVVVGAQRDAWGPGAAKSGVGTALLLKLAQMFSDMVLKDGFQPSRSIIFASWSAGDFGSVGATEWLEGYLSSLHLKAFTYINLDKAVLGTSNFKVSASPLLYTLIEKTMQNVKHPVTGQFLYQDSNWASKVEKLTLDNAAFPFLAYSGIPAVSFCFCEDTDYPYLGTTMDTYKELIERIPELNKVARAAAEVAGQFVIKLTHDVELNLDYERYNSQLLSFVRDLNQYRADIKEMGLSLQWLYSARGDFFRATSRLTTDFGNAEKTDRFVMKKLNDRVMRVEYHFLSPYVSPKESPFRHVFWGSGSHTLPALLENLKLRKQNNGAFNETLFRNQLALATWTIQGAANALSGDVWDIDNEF

B1: h26D3 HC6 DS T91A (scFv)
scFv: HHHHHHGGGGSGGGGSGGGGSGGGGSDIQMTQSPSSVSASVGDRVTITCKSSQSLLYSTNQKNYLAWYQQKPGKAPKLLIYWASTRESGVPSRFSGSGSGTDFTLTISSLQPEDFATYYCQQYFIYPRTFGCGTKVEIKGGGGSGGGGSGGGGSGGGGSEVQLVQSGAEVKKPGSSVKVSCKASGYIFTDYNMDWVRQAPGQCLEWIGDINPDADTTSYNEKFKGRATLTVDKSTSTAYMELSSLRSEDAAVYYCARGGYSGSSYYHPMDYWGQGTLVTVSS
notes: also called h26D3 DS T91A
In experiment [1], B1 showed a Kd of 240 nM, a koff of 0.0111 s⁻¹ and a kon of 46200 M⁻¹ s⁻¹. In experiment [2], this molecule came in with a dissociation constant Kd of 59.7 nM, a koff of 0.00388 s⁻¹ and a kon of 65000 M⁻¹ s⁻¹.

B2: h26D3 HC6 DS T91S T120K (scFv)
scFv: B1 scFv with A250S, T279K
notes: also called h26D3 DS T91S T120K
On to B2, for which, in experiment [3], binding was put at a Kd of 55.5 nM, the koff was determined as 0.00465 s⁻¹ and the kon was determined as 87200 M⁻¹ s⁻¹. In experiment [1], this molecule registered a Kd of 245 nM, a koff of 0.0115 s⁻¹ and an on-rate (kon) of 46700 M⁻¹ s⁻¹. In experiment [2], this molecule gave a Kd of 66.2 nM, a koff of 0.00409 s⁻¹ and a kon of 61900 M⁻¹ s⁻¹.

B3: h26D3 HC6 DS S16E L118S (scFv)
scFv: B1 scFv with S175E, A250T, L277S
notes: also called h26D3 DS S16E L118S
In experiment [1], B3 returned a Kd of 261 nM, a koff of 0.0109 s⁻¹ and a kon of 41700 M⁻¹ s⁻¹. In experiment [2], this molecule returned a Kd of 67.1 nM, a koff of 0.00387 s⁻¹ and a kon of 57800 M⁻¹ s⁻¹.

B4: h26D3 HC6 DS V11R T91A (scFv)
scFv: B1 scFv with V170R
notes: also called h26D3 DS V11R T91A
For B4, the Kd was found to be 58.7 nM in experiment [3], 206 nM in experiment [1] and 61.3 nM in experiment [2]. For the same molecule, the koff was determined as 0.00419 s⁻¹ in experiment [3], 0.012 s⁻¹ in experiment [1] and 0.00458 s⁻¹ in experiment [2]. In addition, the results for the kon in experiment [3], in experiment [1] and in experiment [2] were 74900 M⁻¹ s⁻¹, 58100 M⁻¹ s⁻¹ and 76100 M⁻¹ s⁻¹, respectively.

B5: h26D3 HC6 DS L118S (scFv)
scFv: B1 scFv with A250T, L277S
notes: also called h26D3 DS L118S
In experiment [1], B5 gave a Kd of 243 nM, a koff of 0.0107 s⁻¹ and an on-rate constant (kon) of 44000 M⁻¹ s⁻¹. For the same molecule, in experiment [2], the Kd came to 60 nM, the koff stood at 0.00393 s⁻¹ and the kon was determined as 66200 M⁻¹ s⁻¹.

B6: h26D3 HC6 DS T120K (scFv)
scFv: B1 scFv with A250T, T279K
notes: also called h26D3 DS T120K
Take B6: the Kd turned out to be 71.3 nM in experiment [3], 197 nM in experiment [1] and 59.3 nM in experiment [2]. Further, the off-rate constant (koff) in experiment [3] stood at 0.00478 s⁻¹; in experiment [1], 0.0113 s⁻¹; in experiment [2], 0.00429 s⁻¹. Also, the kon turned out to be 67300 M⁻¹ s⁻¹ in experiment [3], 57400 M⁻¹ s⁻¹ in experiment [1] and 75100 M⁻¹ s⁻¹ in experiment [2].

B7: h26D3 HC6 DS S16E (scFv)
scFv: B1 scFv with S175E, A250T
notes: also called h26D3 DS S16E
In experiment [1], B7 displayed a Kd of 277 nM, a koff of 0.0121 s⁻¹ and a kon of 43800 M⁻¹ s⁻¹. Besides, in experiment [2], the Kd is 68.9 nM, the koff was determined as 0.00397 s⁻¹ and the kon amounted to 57700 M⁻¹ s⁻¹.

B8: h26D3 HC6 DS V11R T120K (scFv)
scFv: B1 scFv with V170R, A250T, T279K
notes: also called h26D3 DS V11R T120K
In experiment [3], B8 displayed a Kd of 48.6 nM, a koff of 0.00449 s⁻¹ and a kon of 95700 M⁻¹ s⁻¹. Also, in experiment [1], binding was characterised by a dissociation constant (Kd) of 201 nM, the koff amounted to 0.0124 s⁻¹ and the kon was found to be 61300 M⁻¹ s⁻¹. For the same molecule, in experiment [2], binding was put at a Kd of 60.2 nM, the koff stood at 0.00441 s⁻¹ and the kon is 73300 M⁻¹ s⁻¹.

B9: h26D3 HC6 DS V11R (scFv)
scFv: B1 scFv with V170R, A250T
notes: also called h26D3 DS V11R
Regarding B9, in experiment [1], the Kd stood at 222 nM, the koff is 0.0113 s⁻¹ and the kon was found to be 51500 M⁻¹ s⁻¹. In experiment [2], this molecule had a Kd of 54 nM, a koff of 0.00465 s⁻¹ and a kon of 90400 M⁻¹ s⁻¹.

B10: h26D3 HC6 DS T91S S122K (scFv)
scFv: B1 scFv with A250S, S281K
notes: also called h26D3 DS T91S S122K
As to B10, in experiment [3], the Kd was 69.5 nM, the koff stood at 0.00463 s⁻¹ and the association rate constant (kon) worked out at 67000 M⁻¹ s⁻¹. Moreover, in experiment [1], the Kd came out at 221 nM, the koff was found to be 0.0108 s⁻¹ and the kon is 48600 M⁻¹ s⁻¹. Also, in experiment [2], the Kd was determined as 50.5 nM, the koff was determined as 0.0038 s⁻¹ and the kon is 76200 M⁻¹ s⁻¹.

B11: h26D3 HC6 DS S122K (scFv)
scFv: B1 scFv with A250T, S281K
notes: also called h26D3 DS S122K
As to B11, the dissociation constant (Kd) was 62.6 nM in experiment [3], 170 nM in experiment [1] and 53.7 nM in experiment [2]. The figures for the off-rate (koff) in experiment [3], in experiment [1] and in experiment [2] were 0.00482 s⁻¹, 0.0103 s⁻¹ and 0.00407 s⁻¹, respectively. Also, the results for the kon in experiment [3], in experiment [1] and in experiment [2] were 85800 M⁻¹ s⁻¹, 61500 M⁻¹ s⁻¹ and 76400 M⁻¹ s⁻¹, respectively.

B12: h26D3-HC6_DS, VL-first (scFv)
scFv: DIQMTQSPSSVSASVGDRVTITCKSSQSLLYSTNQKNYLAWYQQKPGKAPKLLIYWASTRESGVPSRFSGSGSGTDFTLTISSLQPEDFATYYCQQYFIYPRTFGCGTKVEIKGGGGSGGGGSGGGGSGGGGSEVQLVQSGAEVKKPGSSVKVSCKASGYIFTDYNMDWVRQAPGQCLEWIGDINPDADTTSYNEKFKGRATLTVDKSTSTAYMELSSLRSEDTAVYYCARGGYSGSSYYHPMDYWGQGTLVTVSS
For the molecule B12, the figures for the Kd in experiment [3], in experiment [1] and in experiment [2] were 66.2 nM, 246 nM and 68.9 nM, respectively. The koff in experiment [3] is 0.00439 s⁻¹; in experiment [1], 0.0114 s⁻¹; in experiment [2] it was 0.00434 s⁻¹. The kon in experiment [3] is 67100 M⁻¹ s⁻¹; in experiment [1], 47600 M⁻¹ s⁻¹; in experiment [2], 63500 M⁻¹ s⁻¹.

(Values after patent publication US20250388664A1 (BIOARCTIC, published 2025).)
